The source of these data is paper PMC7325720 (The Journal of Infectious Diseases, 2019).

The series “crystal structure” concerns the molecule itself. Kind of series: crystal structure.
Series [1] addresses T1, MBP-CD74 (CD74 ectodomain fused to maltose binding protein), biotinylated (UniProt P04233 73-296, biotin (EZ-Link Sulfo-NHS-LC-Biotinylation kit)).
T1 sequence (looked up): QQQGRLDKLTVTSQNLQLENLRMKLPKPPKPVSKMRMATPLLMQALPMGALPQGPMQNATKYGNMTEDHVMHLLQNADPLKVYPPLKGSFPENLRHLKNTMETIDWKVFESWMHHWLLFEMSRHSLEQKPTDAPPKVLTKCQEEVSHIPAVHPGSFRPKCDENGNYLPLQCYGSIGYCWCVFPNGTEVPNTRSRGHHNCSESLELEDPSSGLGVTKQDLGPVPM
Kind of series: BLI.

B1: Entamoeba histolytica macrophage migration inhibitory factor (Eh-MIF) (natural protein)
chain: MPHALITLSADITEEIKKEIAHESMKILSEVIGKPISYCATQVVTSVGGFGGKIVKSAFIDIKSISGLKGKQEGLSDRYCKLLEQKAGIEGGNIYLNFTEMTGNNWGYDHSTF
As for B1, in the series “crystal structure”, the stoichiometry N (commonly a count of units in the complex or per binding partner) is 3. Also, in series [1], the Kd (in general, the free concentration of one partner at which half of the binding sites on the other are occupied at equilibrium, for simple one-to-one binding) is 11.2 nM.

B2: human macrophage migration inhibitory factor (human MIF) (natural protein, UniProt P14174 1-115, looked up)
chain: MPMFIVNTNVPRASVPDGFLSELTQQLAQATGKPPQYIAVHVVPDQLMAFGGSSEPCALCSLHSIGKIGGAQNRSYSKLLCGLLAERLRISPDRVYINYYDMNAANVGWNNSTFA
In the case of B2, binding in series [1] was put at a Kd of 18.2 nM.
